Measured values reported in US20230346773A1, “USE OF PCSK9 INHIBITOR IN PREPARATION OF PRODUCT FOR TREATING MULTIPLE DISEASES” (priority 2020, published 2023).
Marks after values point to notes of the source that are not given here.

How the values were obtained:
[1] = test system: vitiligo guinea pig model caused by hydroquinone depigmentation; experiment: Vitiligo guinea pig model caused by hydroquinone depigmentation: counts of epidermal MC and melanin-granule-containing basal cells; assay type: in vivo; conditions: guinea pig skin after hydroquinone decolorization, drug once a day for 30 days, n = 10, x ± s
Description: (§1) 10 in each group, Half male and female. Except for the blank control group, the other groups were smeared with 5% hydroquinone in the hair removal area for decolorization, 0.5 mL each time, twice a day, and the animals in the blank control group were smeared with an equal amount of normal saline every day. […] After modeling, the drug was administered in the above manner, once a day for 30 days.
After the observation, the mice were sacrificed, and the skin tissue on the back about 3 cm×3 cm was cut for histopathological examination.
The excised mouse skin tissue was fixed in 10% formalin for 1 hour, washed with running water for 3-4 min, and placed into a phosphate buffer solution (pH 7.4) containing 0.1% dihydroxyphenylalanine, and let stand at 37° C. for 1 hour. Then it was replaced with fresh Dopa reagent and left at 37° C. for 12 hours, rinsed with running water, and fixed with Bouin's solution continuously for 24 h. After the specimens were taken out, it was rinsed with running water for 4 hours, dehydrated, cleared in xylene, embedded in paraffin, deparaffinized to water, and stained with hematoxylin-eosin for contrast. Dehydrated and routinely mounted. After Dopa-oxidase staining, brownish-black staining was MC positive.
The excised mouse skin tissue was fixed in 10% formalin, dehydrated, cleared with xylene, embedded in paraffin, sectioned, deparaffinized to water, washed with distilled water several times, then stained with Lillie reagent, soaked with ferric chloride and potassium ferricyanide mixed solution for 15-20 minutes, then differentiated with 1% acetic acid aqueous solution for several minutes, washed with distilled water several times, then quickly dehydrated with 95% ethanol and absolute ethanol, cleared in xylene, and sealed with neutral gum. If melanin was dark green after Lillie reagent staining, it was positive.

tyrosinase = experiment: Tyrosinase intensity in skin tissue of vitiligo guinea pig model (immunohistochemistry, two-level scoring); assay type: in vivo; conditions: n = 10
Description: as §1
The excised mouse skin tissue was fixed in 10% formalin dehydrated, cleared in xylene, embedded in paraffin, sectioned, deparaffinized to water, then 50 μL of peroxidase blocking agent (3% H2O2) was added to each section for 10 min to block endogenous peroxidase activity. The sections were immersed in 0.01 mol·L-1PBS buffer and microwaved for 10 min, added with 50 μL mouse anti-human tyrosinase monoclonal antibody, left at 37° C. for 60 min, then added with 50 μL of Elivision reagent, left at 37° C. for 30 min. The sections were then placed in freshly prepared DAB-H2O2 chromogenic solution for color development, rinsed with distilled water, stained with hematoxylin for contrast for 1 min, and sealed with neutral gum. The tyrosinase-positive product was located in the cytoplasm of the cell, shown as yellow or brownish-yellow granules or clumps in the cells under the microscope. The two-level scoring method was used to determine the results. If the number of positive cells was less than 5%, the score was 0; 5%˜25% is 1 point; 2 points for 25%˜50%; 3 points for 50%˜75%; >75% is 4 points. When classified according to staining intensity: 1 point for light yellow; 2 points for yellow or dark yellow; 3 points for brown or brownish yellow. If the sum of the two was less than 2, it was negative (−); 2-3 points as positive (+); 4-5 points as moderately positive (2+); 6-7 points as strongly positive (3+).

[2] = test system: androgenetic alopecia (SA) rat model; experiment: Androgenetic alopecia (SA) rat model induced by testosterone propionate; assay type: in vivo, Wistar rats
Description: SPF grade Wistar rats were selected and randomly divided into compound group 1 (skin applied with 5% R-IMPP solution), compound group 2 (skin applied with 5% PF 06446846 solution), and compound group 3 (skin applied with 5% SBC-115076 solution), compound group 4 (skin applied with 5% SBC-110736 solution), monoclonal antibody group 1 (subcutaneous injection of PCSK9 monoclonal antibody ab84041, 5 mg/kg·d), monoclonal antibody group 2 (subcutaneous injection of Evolocumab, 5 mg/kg·d), monoclonal antibody group 3 (subcutaneous injection of Alirocumab, 5 mg/kg·d), PCSK9 RNAi inhibitor group-1 (skin applied with 5% PCSK9 small interfering RNA-1 solution), PCSK9 RNAi inhibitor group-2 (skin applied with 5% PCSK9 small interfering RNA-2 solution), PCSK9 RNAi inhibitor group-3 (skin applied with 5% PCSK9 small interfering RNA-3 solution), and polypeptide group (subcutaneous injection of Abcam company ab32727, 3 mg/kg·d), positive control group (skin smeared with 5% minoxidil tincture), negative control group (smeared with 75% ethanol), model control group (smeared with 75% ethanol), 10 rats in each group, half male and half female.
Before the experiment, each rat selected an area of 4 cm×5 cm on the back to remove the hair as the observation area. Except for the negative control group, the rats were subcutaneously injected with testosterone propionate injection [[…]] at the back of the neck, once a day for 60 consecutive days to establish the SA model. […] At the same time, the rats in the corresponding drug group were smeared or subcutaneously injected on the skin of the observation area of the rats in the drug group, smeared 1 ml/(per time), twice a day, with an interval of 8 hours, and administered by subcutaneous injection, once a day. The negative control group and the model control group were smeared with excipient (75% ethanol solution), 1 mL one rat per time, twice a day, for 60 consecutive days.
10 hairs were extracted from the observation area on the back of each rat every 15 days after administration, and the hair length was measured with a vernier caliper. After 60 days of administration, the skin of the experimental observation area was taken for routine tissue dehydration, paraffin embedding, HE staining, and light microscopy to observe the histopathological changes of the rat skin hair follicles and sebaceous glands. Semi-quantitative analysis was carried out in each group. The grading standards are as follows: normal skin dermal tissue cells, subcutaneous hair follicles, and sebaceous glands were marked as “one”; no hyperplasia in the dermis, limited lesions of hair follicles and sebaceous glands, and no subcutaneous inflammation, marked as “±”; no obvious hyperplasia found in the dermis, obviously cystic follicles, no obvious hyperplasia found in the sebaceous glands, and no inflammation is recorded as “+”; segmental hyperplasia of skin and dermis was not obvious, a small number of hair follicles had cystic degeneration, and sebaceous glands had mild hyperplasia and hypertrophy. No obvious inflammation under the skin was recorded as “++”; the skin and dermis tissue cells had segmental hyperplasia of different degrees, some follicles degenerated, the size of the hair follicles was uneven, and there were no cells in the periphery. There was hyperplasia of sebaceous glands, and there were few nuclei in the hyperplasia glands. Individual rats had mild inflammatory hyperplasia under the skin, which was marked as “+++”.

B1: Evolocumab (antibody, chains of the INN, looked up, V domains shown)
VH: EVQLVQSGAEVKKPGASVKVSCKASGYTLTSYGISWVRQAPGQGLEWMGWVSFYNGNTNYAQKLQGRGTMTTDPSTSTAYMELRSLRSDDTAVYYCARGYGMDVWGQGTTVTVSS
VL: ESALTQPASVSGSPGQSITISCTGTSSDVGGYNSVSWYQQHPGKAPKLMIYEVSNRPSGVSNRFSGSKSGNTASLTISGLQAEDEADYYCNSYTSTSMVFGGGTKLTVL
notes: PCSK9 monoclonal antibody jointly developed by Amgen and Astellas, trade name Repatha
Epidermal melanocyte count ([1]; average number of MCs in each 100 epidermal basal cells): 46.2 ± 3.8 | Basal cells containing melanin granules count ([1]; average number per 100 epidermal basal cells): 41.2 ± 3.9 | Color (units) (tyrosinase; score in brackets for staining colour): 4 units | Number of positive cells (units) (tyrosinase; score in brackets for tyrosinase-positive cells): 4 units | Total number (units) (tyrosinase; sum of positive-cell and colour scores): 7 units | Color (tyrosinase; tyrosinase staining colour): Brownish-yellow | Number of positive cells (tyrosinase; tyrosinase-positive cells): 40% | Skin hair follicles and sebaceous glands: number of rats graded ++ ([2]; 10 rats, after 60 days, few follicles with cystic degeneration, sebaceous glands mild hyperplasia and hypertrophy): 0 | Skin hair follicles and sebaceous glands: number of rats graded ± ([2]; 10 rats, after 60 days, no hyperplasia in the dermis, limited lesions of hair follicles and sebaceous glands, no subcutaneous inflammation): 4 | Skin hair follicles and sebaceous glands: number of rats graded + ([2]; 10 rats, after 60 days, no obvious hyperplasia in dermis, obviously cystic follicles, no inflammation): 3 | Skin hair follicles and sebaceous glands: number of rats graded − ([2]; 10 rats, after 60 days, normal skin dermal tissue cells, subcutaneous hair follicles and sebaceous glands): 3 | Skin hair follicles and sebaceous glands: number of rats graded +++ ([2]; 10 rats, after 60 days, segmental hyperplasia, degenerated follicles, hyperplasia of sebaceous glands, mild inflammatory hyperplasia): 0 | 15 d hair length ([2]; rats, 15 days after administration): 9.7* mm | 30 d hair length ([2]; rats, 30 days after administration): 10.8* mm | 45 d hair length ([2]; rats, 45 days after administration): 15.8* mm | 60 d hair length ([2]; rats, 60 days after administration): 19.5* mm
